Data taken from US6576442 (SUGEN, dated 2003).

Biological target: T1, PYK-NN (PYK2 aa 2-285) fused to the LexA DNA binding domain (UniProt P0A7C2 1-202; Q14289 2-285)
T1 construct: Yeast two-hybrid bait
Experiment: yeast two-hybrid with heterologous baits
Method: The yeast strain L40 containing the reporter genes HIS3 and β-gal under control of upstream LexA-binding site, was used as a host for the two-hybrid screening. […] Yeast strain that express the LexA-PYKN fusion protein was transfected with human brain cDNA library (Clontech #HL404AB) fused to GAL4 transcriptional activation domain. Transformants were plated on agar selection medium lacking Uracil (Ura-), Tryptophane (Trp-), Leucine (Leu-) and Histidine (His-). Resulting colonies were isolated and retested for growth on -Ura-Trp-Leu-His plates and for β-galactosidase activity. Plasmid DNA was purified from colonies that were His+, β-gal+ and used for retransformation of yeast strains expressing heterologous baits to determine the specificity of the interaction.
The yeast two-hybrid system was used to identify proteins that interact with the amino-terminal domain of PYK2. The N-terminal domain of PYK2 was fused to the LexA DNA binding domain and screened a human brain cDNA library. […] The specificity of the interaction was further determined by transformation of this clone into a yeast strain expressing heterologous baits. An interaction was detected in yeast strain expressing either the PYK-N terminal domain, or a shorter version of PYK-N that was missing 48 amino acids from its C-terminal end.

T1 sequence (P0A7C2 other isoform, or with tags, fused parts or gaps limits assumed): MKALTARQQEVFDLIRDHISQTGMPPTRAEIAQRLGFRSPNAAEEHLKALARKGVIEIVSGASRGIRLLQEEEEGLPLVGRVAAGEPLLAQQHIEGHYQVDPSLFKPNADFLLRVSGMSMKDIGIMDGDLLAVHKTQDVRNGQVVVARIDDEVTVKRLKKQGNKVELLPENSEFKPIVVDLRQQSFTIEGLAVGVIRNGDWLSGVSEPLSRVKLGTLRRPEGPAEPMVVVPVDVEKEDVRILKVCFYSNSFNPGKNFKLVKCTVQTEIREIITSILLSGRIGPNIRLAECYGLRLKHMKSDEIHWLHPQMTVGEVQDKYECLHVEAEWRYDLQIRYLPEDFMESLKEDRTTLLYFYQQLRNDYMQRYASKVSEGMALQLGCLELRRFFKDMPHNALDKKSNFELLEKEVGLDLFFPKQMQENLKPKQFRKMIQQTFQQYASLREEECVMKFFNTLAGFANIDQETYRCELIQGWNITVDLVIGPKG

B1: original two hybrid clone containing amino acids 627-975 of hrdgB1, fused to the GAL4 transcriptional activation domain (other, not shown: large carriers)
chain: VKLRNVTANHRANDVIAAEDGPQVLVGRFMYGPLDMVALTGEKVDILVMAEPSSGRWVHLDTEITNSSGRITYNVPRPRRLGVGVYPVKMVVRGDQTCAMSYLTVLPRGMECVVFSIDGSFAASVSIMGSDPKVRPGAVDVVRHWQDLGYMILYITGRPDMQKQRVVSWLSQHNFPQGMIFFSDGLVHDPLRQKAIFLRNLMQECFIKISAAYGSTKDISVYSVLGLPASQIFIVGRPTKKYQTQCQFLSEGYAAHLAVLEASHRSRPKKNNSRMILRKGSFGLHAQPEFLRKRNHLRRTMSVQQPDPPAANPKPERAQSQPESDKDHERPLPALSWARGPPKFESVP
notes: The printed end may count the stop codon; also called GAL10-rdgB1
- binding result: no binding
